Assay results published in US20200325187A1 (Genentech, published 2020).
Where a chain is given by its changes, count along the chain named. Where two headings read alike, the source gives them in different places.

Assays:
hVEGF-A [1] = target: T1, hVEGF-A (human, UniProt P15692-4 27-191, limits assumed); assay: SPR
T1 construct: also called human VEGF-A; WT

VEGF-C = target: T2, VEGF-C (human, UniProt P49767 103-227, limits assumed); assay: competition ELISA: VEGF-C coated, constant Flt-4 receptor, peptide titrated
T2 sequence (looked up): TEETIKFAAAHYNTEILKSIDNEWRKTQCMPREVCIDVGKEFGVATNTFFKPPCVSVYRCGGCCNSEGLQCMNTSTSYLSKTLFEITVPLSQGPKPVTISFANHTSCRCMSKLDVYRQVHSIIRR

hVEGF-A (8-109) [2] = target: T3, hVEGF-A (8-109) (human, UniProt P15692 214-315); assay: spot phage ELISA
T3 sequence (looked up): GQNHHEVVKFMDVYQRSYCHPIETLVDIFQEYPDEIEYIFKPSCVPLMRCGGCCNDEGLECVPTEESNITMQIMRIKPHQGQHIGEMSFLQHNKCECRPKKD
Method in brief: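 Phage clones from four selection rounds were grown overnight at 37 °C with M13-KO7 helper phage. Bound phage was detected with anti-M13-HRP and TMB, with binding to BSA alone run in parallel as background.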

human VEGF-A 165 = human VEGF-A 165 (human, UniProt P15692-4 27-191); assay: competition ELISA: VEGF-A 165 coated, constant KDR receptor, peptide titrated; blocked ligand: KDR
Experimental: (§1) Binding specificity of each peptide was established by competition ELISA. […] After blocking with block buffer (PBS with 0.5% BSA and 0.05% TWEEN®20) for 2 hours at room temperature, the receptor-Fc fusions or biotinylated receptors were serially diluted using assay buffer (PBS with 0.5% BSA and 0.05% TWEEN®20) and incubated for 1 hour at room temperature. […] Competition ELISA was conducted in an identical fashion as described above except after blocking, a mixture of serially diluted peptide containing a constant concentration of receptor-Fc fusion or biotinylated receptor (concentration of receptor was set to EC₆₀) was added and incubated for 1 hour. All recombinant human proteins and antibodies were purchased from R &D Systems (Minneapolis, Minn.).

IGF-1 = IGF-1 (human, UniProt P05019 49-118); assay: competition ELISA: IGF coated, constant IGFR receptor, peptide titrated
hVEGF-A (8-109) [3] = target: T3, hVEGF-A (8-109); assay: competition ELISA: VEGF-A (8-109) coated, constant KDR receptor, peptide titrated; blocked ligand: KDR
Experimental: as §1

hVEGF-A Y21A = target: T4, hVEGF-A Y21A (human, UniProt P15692-4 34-135, Y21A); assay: SPR
T4 construct: position probably counted on the mature protein
T4 sequence (looked up): T3 sequence (looked up) with Y14A
Experimental: (§2) Depending on the format of the assay either a streptavidin sensor (SA) or a dextran-coated (CM5) sensor was utilized as described below.
(§3) Reaction was then quenched by addition of 10 molar excess of Glycine pH 8.0 and the sample was buffer exchanged into PBS using an Amicon 0.5 mL 3000 MWCO ultra-centrifugal filters (EMD Millipore). The biotinylation state of the protein was verified by LC-MS analysis. Biotinylated VEGF-A was then captured on the surface until a resonance unit (RU) signal of about ˜400. For immobilization of VEGF-A on CM5 sensor, the surface was first activated with a mixture of N-ethyl-N′-(3-dimethylaminopropyl)carbodiimide hydrochloride and N-hydroxysuccinimide (EDC/NHS) according to the supplier instructions. VEGF-A was then diluted into coupling buffer (0.1 M Acetate Buffer, pH 5.0) and injected until the signal reached about ˜400 RU followed by a wash with 1 M ethanolamine pH 8.0 to quench remaining activated sites.

hVEGF-A [4] = target: T1, hVEGF-A; assay: SPR; remark: listed apart in the source
Experimental: as §2, §3

hVEGF-A K48A = target: T5, hVEGF-A K48A (human, UniProt P15692-4 34-135, K48A); assay: SPR
T5 construct: position probably counted on the mature protein
T5 sequence (looked up): T3 sequence (looked up) with K41A
Experimental: as §2, §3

hVEGF-A Q89A = target: T6, hVEGF-A Q89A (human, UniProt P15692-4 34-135, Q89A); assay: SPR
T6 construct: position probably counted on the mature protein
T6 sequence (looked up): T3 sequence (looked up) with Q82A
Experimental: as §2, §3

hVEGF-A F17A/M81A = target: T7, hVEGF-A F17A/M81A (human, UniProt P15692-4 34-135, F17A; M81A); assay: site-directed mutants, SPR; no numbers printed for this mutant
T7 construct: positions probably counted on the mature protein
T7 sequence (looked up): T3 sequence (looked up) with F10A, M74A

hVEGF-A [5] = target: T1, hVEGF-A; assay: KDR-VEGF competition ELISA
PIGF-2 = target: T8, PIGF-2 (human, UniProt P49763-3 19-170); assay: competition ELISA: PIGF-2 coated, constant Flt-1 receptor, peptide titrated
T8 construct: also called P1Gf-2; P1GF
T8 sequence (looked up): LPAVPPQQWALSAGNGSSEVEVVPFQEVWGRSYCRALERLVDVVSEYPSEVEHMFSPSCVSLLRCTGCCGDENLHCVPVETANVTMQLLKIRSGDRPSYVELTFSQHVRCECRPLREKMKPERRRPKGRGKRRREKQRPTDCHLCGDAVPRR

hVEGF-A [6] = target: T1, hVEGF-A; assay: cell-based or functional assay

human VEGF-A 165, sequence (P15692 other isoform, or with tags, fused parts or gaps limits assumed): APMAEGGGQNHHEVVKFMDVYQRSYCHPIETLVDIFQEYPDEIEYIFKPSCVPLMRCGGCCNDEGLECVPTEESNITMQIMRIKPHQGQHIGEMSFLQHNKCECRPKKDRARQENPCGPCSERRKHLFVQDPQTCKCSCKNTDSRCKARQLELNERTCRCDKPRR

For GCNIMLPFWGCGRDFECLAGCVCQYYQSCG (designed binder) [VEGF_CKP9.54.90], the Kd (hVEGF-A [1]) was 0.4 nM, the binding result (VEGF-C) was “no binding (tested: 5 µM)” and the ELISA (hVEGF-A (8-109) [2]) was 2.3. For the same binder, the “S/N vs BSA” value (hVEGF-A (8-109) [2]) was 29.5, the “IC50 (read off the curve)” value (human VEGF-A 165) was ~30 nM and the binding result (IGF-1) was “no binding (tested: 5 µM)”. The “IC50 (read off the curve)” value (hVEGF-A (8-109) [3]) was ~20 nM, the Kd (hVEGF-A Y21A) was 3.5 nM and the Kd (hVEGF-A [4]) was 0.37 nM. For the same binder, the Kd (hVEGF-A K48A) was 0.19 nM, the Kd (hVEGF-A Q89A) was 8.8 nM and the binding result (hVEGF-A F17A/M81A) was “binds”. For the same binder, the IC50 (hVEGF-A [5]) was 0.2 nM, the binding result (PIGF-2) was “no binding (tested: 5 µM)” and the “IC50 (read off the curve)” value (hVEGF-A [6]) was ~60 nM.
